11 molecules from paper PMC4510971, “Ubinuclein-1 confers histone H3.3-specific-binding by the HIRA histone chaperone complex” (Nature Communications, 2015) can be followed below.

No end group written: not given here. *: point of attachment. FITC = O=C1OC2(c3ccc(O)cc3Oc3cc(O)ccc32)c2ccc(NC(=S)*)cc21

Conditions in all cases: both partners purified
One test has as its target T1, H3.1/H4 (human | X. laevis, UniProt P68431 1-136; P62799 1-103).
T1 construct: also called H3.1(FL)/H4(FL); FL H3.1/H4; not shown: His6, N-terminal, cleaved; copies: 2 + 2
The test is described as follows: fluorescence polarisation; direct: increasing H3/H4 titrated into 10 nM FITC-UBN1(127–148); 20 mM HEPES pH 7.5, 750 mM NaCl, 1 mM TCEP; one site total binding fit. In general terms: Fluorescence polarisation rises when a labelled molecule tumbles more slowly, as on binding a larger partner.

Test [1] addresses T2, H3.3/H4 (human | X. laevis, UniProt P84243 1-136; P62799 1-103).
T2 construct: histone H3.3, human, from a human cDNA library (ATCC 77430); also called H3.3(FL)/H4(FL); FL H3.3/H4; not shown: His6, N-terminal, cleaved; copies: 2 + 2
The test is described as above.

Test [2] deals with T2, H3.3/H4. The test is described as follows: pull-down; 2 μM GST-tagged protein as bait on glutathione agarose, 4 μM H3/H4; 20 mM HEPES pH 7.5, 750 mM NaCl, 1 mM TCEP, 4 °C; Coomassie gel (Figs 2, 3, Supplementary Figs 1, 4, 5).
The next test concerns the target T3, Asf1/H3.3(FL)/H4(FL) (S. cerevisiae | human | X. laevis, UniProt P32447 1-169; P84243 1-136; P62799 1-103).
T3 construct: histone H3.3, human; also called Asf1/H3.3(FL)/H4(FL) complex; not shown: His6, N-terminal, cleaved; copies: + +
The test is described as follows: ITC; 0.450 mM UBN1 injected into a cell with 30 μM H3/H4, 22 °C; 20 mM HEPES pH 7.5, 750 mM NaCl, 1 mM TCEP. A general note: In ITC the heat of successive injections is recorded.

The target of test [3] is T2, H3.3/H4. Kind of test: ITC + fluorescence polarisation; range of dissociation constants printed 'depending on the assay used' (ITC and FP competition against FITC-UBN1(127–148)); 750 mM NaCl buffer.
For test [4], the target named is T2, H3.3/H4. The test is described as follows: fluorescence polarisation; competition: UBN1 competitor titrated into 10 nM FITC-UBN1(127–148) with 6.5 μM H3.3/H4 or 25 μM H3.1/H4; 20 mM HEPES pH 7.5, 750 mM NaCl, 1 mM TCEP.
In test [5] the target is T2, H3.3/H4. Kind of test: ITC; 0.450 mM UBN1 injected into a cell with 30 μM H3/H4, 22 °C; 20 mM HEPES pH 7.5, 750 mM NaCl, 1 mM TCEP.

B1: FITC-UBN1(127–148) (peptide)
peptide: {FITC}-DMGYGYDESDSFIDNSEAYDEL
notes: also called FITC-labelled UBN1 peptide; source: synthetic peptide (Genscript)
One may read the Kd as a measure of binding affinity in units of concentration. Turning to B1, the Kd in the test with H3.1/H4 worked out at 17.7 ± 2.3 µM; with H3.3/H4 [1], 4.3 ± 0.2 µM.

B2: GST-UBN1(92–175) S135A (domain or fragment)
chain: NDEEKERHKVEALARKFEEKYGGKKRRKDRIQDLIDMGYGYDEADSFIDNSEAYDELVPASLTTKYGGFYINSGTLQFRQASES
notes: one of the 27 alanine point mutants; the text names only the residue; also called S135 alanine point mutant; source: E. coli BL21-Gold(DE3), purified; not shown: GST, N-terminal, kept
Regarding B2, the binding result with H3.3/H4 [2] was “binds”.

B3: GST-UBN1(92–175) E134A (domain or fragment)
chain: NDEEKERHKVEALARKFEEKYGGKKRRKDRIQDLIDMGYGYDASDSFIDNSEAYDELVPASLTTKYGGFYINSGTLQFRQASES
notes: one of the 27 alanine point mutants; the text names only the residue; also called E134 alanine point mutant; source: E. coli BL21-Gold(DE3), purified; not shown: GST, N-terminal, kept
B3: the binding result with H3.3/H4 [2] was “binds”.

B4: GST-UBN1(92–175) S137A (domain or fragment)
chain: NDEEKERHKVEALARKFEEKYGGKKRRKDRIQDLIDMGYGYDESDAFIDNSEAYDELVPASLTTKYGGFYINSGTLQFRQASES
notes: also called S137 alanine point mutant; source: E. coli BL21-Gold(DE3), purified; not shown: GST, N-terminal, kept
Turning to B4, the binding result with H3.3/H4 [2] is given as “binds”.

B5: UBN1(122–148) peptide (peptide)
peptide: IQDLIDMGYGYDESDSFIDNSEAYDEL
notes: also called UBN1-HRD peptide; source: synthetic peptide (Genscript)
Turning to B5, the dissociation constant (Kd) was roughly 49 µM in the test with Asf1/H3.3(FL)/H4(FL) and 40 to 46 µM with H3.3/H4 [3].

B6: UBN1(92–175) (domain or fragment)
chain: NDEEKERHKVEALARKFEEKYGGKKRRKDRIQDLIDMGYGYDESDSFIDNSEAYDELVPASLTTKYGGFYINSGTLQFRQASES
notes: also called UBN1 WT; source: E. coli BL21-Gold(DE3), purified (glutathione agarose, TEV cleavage, gel filtration); not shown: GST, N-terminal, cleaved
With B6, the Kd with H3.3/H4 [3] lay within 7 to 17 µM.

B7: UBN1(92–175) S137A (domain or fragment)
chain: NDEEKERHKVEALARKFEEKYGGKKRRKDRIQDLIDMGYGYDESDAFIDNSEAYDELVPASLTTKYGGFYINSGTLQFRQASES
notes: source: E. coli BL21-Gold(DE3), purified (TEV cleavage, gel filtration); not shown: GST, N-terminal, cleaved
As for B7, the binding result with H3.3/H4 [4] is given as “binds”.

B8: UBN1(92–175) S135A (domain or fragment)
chain: NDEEKERHKVEALARKFEEKYGGKKRRKDRIQDLIDMGYGYDEADSFIDNSEAYDELVPASLTTKYGGFYINSGTLQFRQASES
notes: one of the 27 alanine point mutants; the text names only the residue; also called S135 alanine point mutant; source: E. coli BL21-Gold(DE3), purified (TEV cleavage, gel filtration); not shown: GST, N-terminal, cleaved
With B8, the binding result with H3.3/H4 [4] is on record as “binds”.

B9: UBN1(92–175) E134A (domain or fragment)
chain: NDEEKERHKVEALARKFEEKYGGKKRRKDRIQDLIDMGYGYDASDSFIDNSEAYDELVPASLTTKYGGFYINSGTLQFRQASES
notes: one of the 27 alanine point mutants; the text names only the residue; also called E134 alanine point mutant; source: E. coli BL21-Gold(DE3), purified (TEV cleavage, gel filtration); not shown: GST, N-terminal, cleaved
For the molecule B9, the binding result with H3.3/H4 [4] is “binds”.

B10: UBN1(92–148) (domain or fragment)
chain: NDEEKERHKVEALARKFEEKYGGKKRRKDRIQDLIDMGYGYDESDSFIDNSEAYDEL
Turning to B10, the binding result with H3.3/H4 [5] is “binds”.

B11: UBN1(122–175) (domain or fragment)
chain: not shown
Turning to B11, in the test with H3.3/H4 [5], the binding result was “binds”.
